From patent US20250011456A1 (VILLANELLE LIFE SCIENCE, published 2025) come the findings set out here.

Sequences and labels used below:
B1: Antibody No. D6DD3D001 (HU1127-mVH/mVL) (antibody, human IgG1, kappa, V domains shown)
VH: DVQLQQSGPGLVKPSQSLSLTCTVTGYSITSDSAWNWIRQFPGNRLEWMGYISYSGSTSYNPSLKSRISITRDTSKNQFFLQLNSVTTEDTATYYCVRGLRFAYWGQGTLVTVSS
VL: DIVLTQSPASLAVSLGQRATISCRASESVDSYVNSFLHWYQQKPGQPPKLLIYRASNLQSGIPARFSGSGSRTDFTLTINPVEADDVATYYCQQSNEDPYTFGGGTKLEIKR
notes: Mouse variable domains of Atibuclimab on human IgG1 constant regions (hFc, 146 kDa); also called Original IgG1 antibody; mouse antibody
B2: Antibody No. MPDDAD001 (HU1127-hVH3/hVL3-1) (antibody, IgG1, V domains shown)
VH: QLQLQESGPGLVKPSETLSLTCTVSGGSISSDSAWNWIRQPPGKGLEWIGYISYSGSTSYNPSLKSRVTISRDTSKNQFSLKLSSVTAADTAVYYCVRGLRFAYWGQGTLVTVSS
VL: DIQLTQSPSSLSASVGDRVTITCRASESVDSYVDSFLHWYQQKPGKAPKLLIYRASNLQSGVPSRFSGSGSRTDFTLTISSLQPEDVATYYCQQSNEDPYTFGQGTKLEIK
notes: D6DD3D014 with the light chain PTM site NS (VL amino acids 34, 35) changed to DS; Tested as a recombinant antibody with hFc tag, 144 kDa
B3: Antibody No. MPDDAD004 (HU1127-hVH3/hVL3-4) (antibody, V domains shown)
VH: B2 VH
VL: B2 VL with D34N, S35A
notes: D6DD3D014 with the light chain PTM site NS (VL amino acids 34, 35) changed to NA; Tested as a recombinant antibody with hFc tag, 144 kDa
B4: Antibody No. MPDDAD002 (HU1127-hVH3/hVL3-2) (antibody, V domains shown)
VH: B2 VH
VL: B2 VL with D34S
notes: D6DD3D014 with the light chain PTM site NS (VL amino acids 34, 35) changed to SS; Tested as a recombinant antibody with hFc tag, 144 kDa
B5: Antibody No. MPDDAD003 (HU1127-hVH3/hVL3-3) (antibody, V domains shown)
VH: B2 VH
VL: B2 VL with D34T
notes: D6DD3D014 with the light chain PTM site NS (VL amino acids 34, 35) changed to TS; Tested as a recombinant antibody with hFc tag, 144 kDa
B6: Antibody No. MPDDAD005 (HU1127-hVH3/hVL3-5) (antibody, V domains shown)
VH: B2 VH
VL: B2 VL with D34Q
notes: D6DD3D014 with the light chain PTM site NS (VL amino acids 34, 35) changed to QS; Tested as a recombinant antibody with hFc tag, 144 kDa

Changes are numbered by the printed parent chain.

The target in the first assay is T1, Recombinant Human CD14/His Protein (B294801) (human, UniProt P08571 20-352, limits assumed).
T1 construct: Bought His-tagged recombinant human CD14; also called recombinant human CD14 antigen; CD14 antigen; not shown: histidine tag
T1 sequence (looked up): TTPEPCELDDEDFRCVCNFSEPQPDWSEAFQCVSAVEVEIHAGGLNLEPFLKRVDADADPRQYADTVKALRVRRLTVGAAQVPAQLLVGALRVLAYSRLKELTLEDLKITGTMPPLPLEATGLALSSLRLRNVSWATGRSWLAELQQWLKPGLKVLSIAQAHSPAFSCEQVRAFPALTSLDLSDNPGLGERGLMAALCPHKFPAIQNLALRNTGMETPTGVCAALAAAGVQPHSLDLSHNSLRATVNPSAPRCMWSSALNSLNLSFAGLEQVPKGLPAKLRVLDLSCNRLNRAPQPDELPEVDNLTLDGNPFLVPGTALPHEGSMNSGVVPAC
As to the kind of experiment: SPR (Biacore 8K), antibody captured on Protein A chip, CD14-His analyte 0.78125-25 nM, 1:1 binding. On the procedure: The Biacore 8K platform was used to test the kinetic and affinity properties of the antibody. The operation was carried out according to the system instructions and indications.
15 humanized antibodies (numbered D6DD3D002-D6DD3D0016) and 1 mouse antibody (number D6DD3D001) were tested. […] The capture concentration was 1 μg/mL. In Table 8-3, the change factor is the ratio of the equilibrium dissociation constant KD of the humanized to mouse antibody, and reflects the change in affinity after humanization.
As for B1, the “Change Factor (KD relative to mouse antibody D6DD3D001)” value was determined as 1; the dissociation constant Kd – broadly, the constant that tells how readily two partners part at equilibrium – was 0.485 nM; the koff – broadly, a measure of how fast the partners let go of each other – was 0.000858 s⁻¹; the kon (usually a measure of how fast the partners come together) stood at 1.77e+06 M⁻¹ s⁻¹.

The target in another assay is T1, Recombinant Human CD14/His Protein …. As to the kind of experiment: SPR (Biacore 8K), antibody captured (1 ug/mL) on Protein A chip, CD14-His analyte 0.1953125-25 nM, 1:1 binding. The procedure:
The Biacore 8K platform was used to test the kinetic and affinity properties of the antibody, operating according to system instructions and indications.
Results of Affinity Detection. The affinity of the six antibodies was measured at saturation concentration. […] Change factor is described above.
Background: In SPR one partner is held on a chip, and binding of the other changes the refractive index at the surface.
Regarding B1, the “Change Factor (KD relative to mouse antibody D6DD3D001)” value came out at 1, the equilibrium dissociation constant (Kd) came to 0.864 nM, the koff is 0.00108 s⁻¹ and the on-rate (kon) came out at 1.25e+06 M⁻¹ s⁻¹.

Regarding B2, the “Change Factor (KD relative to mouse antibody D6DD3D001)” value stood at 8.66, the Kd was found to be 7.48 nM, the koff came to 0.00633 s⁻¹ and the association rate constant (kon) is 847000 M⁻¹ s⁻¹.

Turning to B3, the “Change Factor (KD relative to mouse antibody D6DD3D001)” value came out at 6.86, the dissociation constant (Kd) was 5.93 nM, the koff stood at 0.0046 s⁻¹ and the association rate constant (kon) is 775000 M⁻¹ s⁻¹.

Consider B4, for which the “Change Factor (KD relative to mouse antibody D6DD3D001)” value was found to be 3.24, the Kd amounted to 2.8 nM, the koff came out at 0.00362 s⁻¹ and the on-rate constant (kon) turned out to be 1.29e+06 M⁻¹ s⁻¹.

With B5, the “Change Factor (KD relative to mouse antibody D6DD3D001)” value is 2.34, the Kd came to 2.02 nM, the off-rate (koff) was determined as 0.0026 s⁻¹ and the on-rate (kon) came out at 1.29e+06 M⁻¹ s⁻¹.

Consider B6, for which the “Change Factor (KD relative to mouse antibody D6DD3D001)” value was 5.65, the Kd stood at 4.88 nM, the koff was 0.00544 s⁻¹ and the kon amounted to 1.11e+06 M⁻¹ s⁻¹.
